“Also recorded” adds a separate entry of the source. Like-named read-outs stand apart in the source and are kept apart here.

One test addresses plasma kallikrein (Homo sapiens, UniProt P03952). The note with it: cited from earlier work.
The next test addresses T1, proteinase 3 (Homo sapiens, UniProt P24158).
T1 sequence (P24158 28-256): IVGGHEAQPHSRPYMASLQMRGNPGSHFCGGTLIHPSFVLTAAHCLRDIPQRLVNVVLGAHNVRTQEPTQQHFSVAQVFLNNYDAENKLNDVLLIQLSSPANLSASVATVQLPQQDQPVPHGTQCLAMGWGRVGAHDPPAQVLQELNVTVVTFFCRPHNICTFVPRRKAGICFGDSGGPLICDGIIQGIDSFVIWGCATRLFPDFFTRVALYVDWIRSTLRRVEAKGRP
The note with it: cited from earlier work.

In a further test the target is T2, cathepsin G (Homo sapiens, UniProt P08311).
T2 sequence (P08311 21-255): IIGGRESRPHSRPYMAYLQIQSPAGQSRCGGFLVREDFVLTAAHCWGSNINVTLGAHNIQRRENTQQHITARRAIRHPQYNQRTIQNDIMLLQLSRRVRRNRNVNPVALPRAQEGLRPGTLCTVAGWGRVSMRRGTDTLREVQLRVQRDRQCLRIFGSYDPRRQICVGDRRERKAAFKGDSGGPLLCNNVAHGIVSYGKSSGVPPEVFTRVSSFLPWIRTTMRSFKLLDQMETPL
The note with it: cited from earlier work.

For test [1], the system named is neutrophil-induced ECM solubilization. The note with it: cited from earlier work.
For test [2], the target named is T3, human neutrophil proteinase 3 (Homo sapiens, UniProt P24158).
T3 construct: purchased Athens Research and Technology, Inc. (Athens, Ga.)
T3 sequence (P24158 28-256): T1 sequence (P24158 28-256)
In words: Determination of equilibrium dissociation constants, proteinase 3. It counts as biochemical. On the procedure: (§1) The BTL.009 concentration was determined by amino acid analysis. The concentration of human neutrophil elastase, cathepsin G, and proteinase 3 were based on the manufacturer's specifications. […] Hydrolysis of AMC-conjugated peptides was monitored on a Hitachi model F4500 fluorometer (excitation=370 nm, emission=432 nm) over the first 2 minutes of the reaction. Ki* values were determined from plots of fractional rate versus inhibitor concentration, which were fit by nonlinear regression analysis (Enzifitter™ by Bio soft, Cambridge UK) as described (44). Ki values were obtained by correction for the effect of substrate as described (44).

Test [3] addresses T4, human neutrophil elastase (Homo sapiens, UniProt P08246).
T4 construct: purchased Athens Research and Technology, Inc. (Athens, Ga.)
T4 sequence (P08246 30-267): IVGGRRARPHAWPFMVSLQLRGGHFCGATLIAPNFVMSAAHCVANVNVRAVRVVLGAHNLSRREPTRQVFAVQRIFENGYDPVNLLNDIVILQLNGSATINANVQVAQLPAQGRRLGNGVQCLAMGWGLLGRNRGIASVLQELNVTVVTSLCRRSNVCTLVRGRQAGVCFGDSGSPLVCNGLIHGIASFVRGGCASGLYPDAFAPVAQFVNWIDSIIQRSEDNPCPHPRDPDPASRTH
In words: Determination of equilibrium dissociation constants, neutrophil elastase. It counts as biochemical. On the procedure:
as §1

For the next test, the target named is T5, Bovine chymotrypsin (Bos taurus, UniProt P00766).
T5 construct: purchased Sigma (St. Louis, Mo.)
In words: Chymotrypsin assay to monitor protein folding. It counts as biochemical. On the procedure:
To identify the properly folded form from reverse phase purification, the inhibition of chymotrypsin was measured. Chymotrypsin (20 nM) was incubated with refolded BTL.009 reverse phase fractions (0.04 absorbance units at 280 nm) in 100 μl of 50 MM Hepes (pH 7.5), 0.15 M NaCl, 2.0 mM CaCl2, and 0.01% Triton X-100 (buffer A) at 37° C. After 30 minutes, Suc-AAPF-pNa (100 μM final concentration) was added, after which the residual enzymatic formation of pNa was monitored at 410 nm.

The test system of test [4] is trypsin. In words: Inhibitory activity of BTL.009 towards trypsin / trypsin-like proteinases. It counts as biochemical.
The target in test [5] is T6, human neutrophil cathepsin G (Homo sapiens, UniProt P08311).
T6 construct: purchased Athens Research and Technology, Inc. (Athens, Ga.)
T6 sequence (P08311 21-255): T2 sequence (P08311 21-255)
In words: Determination of equilibrium dissociation constants, cathepsin G. Type of test: biochemical. Here is the method:
as §1

For another test, the target named is T7, leukocyte elastase (Homo sapiens, UniProt P08246).
T7 sequence (P08246 30-267): T4 sequence (P08246 30-267)
Particulars: cited from earlier work.

In the next test the target is chymotrypsin. The note with it: cited from earlier work; for Ki: read-out: Ki, chymotrypsin.
Another test deals with platelets. The note with it: cited from earlier work.
The target of another test is thrombin (Homo sapiens, UniProt P00734). Particulars: cited from earlier work.
For test [6], the target named is T8, trypsin (Bos taurus, UniProt P00760).
T8 construct: gene PRSS1
T8 sequence (P00760 24-246): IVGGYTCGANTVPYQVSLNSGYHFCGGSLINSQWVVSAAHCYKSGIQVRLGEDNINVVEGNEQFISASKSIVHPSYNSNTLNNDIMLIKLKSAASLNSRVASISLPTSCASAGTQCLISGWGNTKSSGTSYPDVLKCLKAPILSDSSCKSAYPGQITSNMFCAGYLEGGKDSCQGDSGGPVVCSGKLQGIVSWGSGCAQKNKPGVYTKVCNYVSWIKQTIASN
The note with it: cited from earlier work.

Where [7] appears, read: read-out: Ki, leukocyte elastase.

Sequence of plasma kallikrein (P03952 20-638, species assumed): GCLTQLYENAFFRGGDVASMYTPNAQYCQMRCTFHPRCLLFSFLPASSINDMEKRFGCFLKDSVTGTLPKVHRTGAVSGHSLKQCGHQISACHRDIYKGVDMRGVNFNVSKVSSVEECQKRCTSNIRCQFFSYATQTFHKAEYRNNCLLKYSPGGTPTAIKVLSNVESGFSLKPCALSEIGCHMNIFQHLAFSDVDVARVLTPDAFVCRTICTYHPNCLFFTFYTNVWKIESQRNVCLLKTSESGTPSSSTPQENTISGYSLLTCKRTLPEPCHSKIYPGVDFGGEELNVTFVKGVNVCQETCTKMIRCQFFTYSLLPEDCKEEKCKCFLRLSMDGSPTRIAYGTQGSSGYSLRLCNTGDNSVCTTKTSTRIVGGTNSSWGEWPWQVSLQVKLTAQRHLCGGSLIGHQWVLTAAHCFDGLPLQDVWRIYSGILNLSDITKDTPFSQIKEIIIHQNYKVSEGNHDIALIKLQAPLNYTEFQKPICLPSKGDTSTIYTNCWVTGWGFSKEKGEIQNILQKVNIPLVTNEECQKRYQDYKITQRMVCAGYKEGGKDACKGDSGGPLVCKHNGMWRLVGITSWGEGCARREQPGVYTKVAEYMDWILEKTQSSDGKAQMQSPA

The Ki is the equilibrium dissociation constant of an inhibitor or competing ligand from its target. For the substance “APP KD variant (T11D, P13H, M17A, 118H, S19P and F34Y): phage display / consensus mutant APP KD differing at 6 key residues; plasma kallikrein inhibitor”, in the test with plasma kallikrein, the Ki was roughly 0.015 nM and the “increase in binding affinity to plasma kallikrein compared to wild-type APP KD” value was “more than 10,000 fold”.
As to “Alpha 1-proteinase inhibitor: a serpin family serine proteinase inhibitor; major serum inhibitor of elastase and cathepsin G”, the “inhibition of proteinase 3, in words” value in the test with proteinase 3 is given as “inhibit”. Moreover, the “inhibition of cathepsin G, in words” value with cathepsin G is listed as “potent inhibitor”; in the test with cathepsin G (listed as Alpha-1-proteinase) it was “inhibit”. For the same substance, the “inhibition of neutrophil-induced ECM solubilization” value in [1] is given as “completely or nearly completely inhibit”.
On to “BTL.009: synthetic, refolded peptide corresponding to the EST-derived human Kunitz domain KQDVCEMPKETGPCLAYFLHWWYDKKDNTCSMFVYGGCQGNNNNFQSKANCLNTC (SEQ ID NO:1)”, for which the “inhibition of proteinase 3, in words” value in test [2] is “moderate inhibitor”. For the same substance, in test [3], the “inhibition of leukocyte elastase, in words” value is “strong inhibitor; also recorded: elastase inhibitor”. In the test with Bovine chymotrypsin, the “preference for chymotrypsin-like over trypsin-like proteases” value is on record as “inhibit preferentially chymotrypsin-like proteases over trypsin-like proteases”. For the same substance, the “inhibitory activity towards trypsin compared with neutrophil neutral serine proteinase” value in the test on trypsin [4] was “significantly greater inhibitory activity towards a neutral serine proteinase secreted by neutrophils than towards trypsin”. Besides, the “expected activity towards trypsin-like proteinases” value in the test on trypsin [4] (expected, not tested) is “little activity towards all trypsin-like proteinases”. Moreover, the “inhibition of cathepsin G, in words” value in [5] is on record as “weak inhibitor”.
Regarding “TFPI: Tissue factor pathway inhibitor, another member of the Kunitz family”, the Ki in the test with cathepsin G was 100 to 200 nM; with leukocyte elastase (setting [7]), 400 nM; at chymotrypsin, 0.75 nM.
For the substance Tannin, the “inhibition of leukocyte elastase, in words” value on leukocyte elastase was “specifically inhibits leukocyte elastase in an irreversible manner”.
Turning to “Thrombospondin 1: inactivates cathepsin G by binding near the enzyme's active site”, in the test with platelets, the “cathepsin G-mediated platelet aggregation” value is given as “blocked”. In the test with cathepsin G, the “inhibition of cathepsin G, in words” value was “inactivates cathepsin G”.
Take “alpha 1-proteinase inhibitor [Arg358]: alpha 1-proteinase inhibitor P1 variant”: in the test with thrombin, the “inhibition of trypsin-like molecules such as thrombin, in words” value is on record as “potent inhibitor”. Besides, in the test with leukocyte elastase, the “inhibition of leukocyte elastase, in words” value is “not of leukocyte elastase”.
For “alpha-2-macroglobulin: member of the serpin proteinase inhibitor family (as stated)”, the “inhibition of proteinase 3, in words” value with proteinase 3 was “inhibit”. Moreover, in the test with cathepsin G, the “inhibition of cathepsin G, in words” value is recorded as “inhibit”. Further, the “inhibition of leukocyte elastase, in words” value in the test with leukocyte elastase was “inhibit”.
Consider aprotinin, for which the Ki is 0.02 nM on trypsin [6] and 1.3 nM at chymotrypsin. Also, the “inhibition of leukocyte elastase, in words” value on leukocyte elastase is “does not inhibit”.
Turning to “double mutant hPSTI variant: hPSTI with P1 lysine to leucine and P'1 isoleucine to glutamate (DSLGREAKCYNELNGCTLEYDPVCGTDGNTYPNECVLCFENRKRQTSILIQKSGPC; UniProt P00995 24-79, looked up, variant K18L I19E)”, the Ki in the test with leukocyte elastase (setting [7]) was 0.037 nM; at chymotrypsin it was 0.024 nM.
For the substance “elafin: member of the mucous proteinase inhibitor family (AQEPVKGPVSTKPGSCPIILIRCAMLNPPNRCLKDTDCPGIKKCCEGSCGMACFVPQ; Elafin; UniProt P19957 61-117, looked up)”, the “inhibition of proteinase 3, in words” value with proteinase 3 is on record as “not proteinase 3”. In addition, the “inhibition of cathepsin G, in words” value in the test with cathepsin G was “not”. Besides, in the test with leukocyte elastase (read-out: Ki, elastase), the Ki was 0.6 nM.
For the substance “hPSTI: a member of the Kazal serine proteinase family (DSLGREAKCYNELNGCTKIYDPVCGTDGNTYPNECVLCFENRKRQTSILIQKSGPC; UniProt P00995 24-79, looked up)”, in the test with trypsin [6], the “inhibition of trypsin, in words” value is on record as “potent inhibitor”. The “inhibition of leukocyte elastase, in words” value in the test with leukocyte elastase is “completely inactive”. Besides, the “inhibition of chymotrypsin, in words” value in the test with chymotrypsin is “completely inactive”.
“single mutant hPSTI variant: hPSTI with P1 residue lysine substituted with leucine (DSLGREAKCYNELNGCTLIYDPVCGTDGNTYPNECVLCFENRKRQTSILIQKSGPC; UniProt P00995 24-79, looked up, variant K18L)”: the “inhibition of trypsin, in words” value with trypsin [6] was “inactive”. Besides, the Ki in the test with leukocyte elastase (setting [7]) is 0.025 nM; on chymotrypsin, 8 nM.

The values above are taken from patent publication US6294648A, “Protein having proteinase inhibitor activity” (Bayer Corporation, priority 1999, dated 2001).
